This note sets out measurements from IntAct's records for PubMed 19706414.

The target in this experiment is casp8_human CASP8 (UniProt Q14790).
Chain of casp8_human CASP8 (Q14790 whole entry): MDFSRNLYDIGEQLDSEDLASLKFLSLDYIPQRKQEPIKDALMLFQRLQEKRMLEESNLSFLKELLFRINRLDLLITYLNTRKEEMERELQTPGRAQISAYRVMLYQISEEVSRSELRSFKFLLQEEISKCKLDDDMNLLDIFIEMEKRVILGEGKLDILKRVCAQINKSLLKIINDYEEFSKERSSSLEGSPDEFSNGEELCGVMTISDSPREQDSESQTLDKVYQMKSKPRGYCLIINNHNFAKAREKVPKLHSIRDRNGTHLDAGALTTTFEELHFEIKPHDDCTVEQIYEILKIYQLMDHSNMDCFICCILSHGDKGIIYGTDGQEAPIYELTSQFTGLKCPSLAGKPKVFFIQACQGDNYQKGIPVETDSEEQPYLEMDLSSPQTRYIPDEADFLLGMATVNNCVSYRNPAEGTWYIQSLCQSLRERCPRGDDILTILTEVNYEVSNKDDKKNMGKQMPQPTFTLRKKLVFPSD

Chain of Osteopontin (Homo sapiens), P10451-1 D135A;D157A (P10451 whole entry D135A/D157A): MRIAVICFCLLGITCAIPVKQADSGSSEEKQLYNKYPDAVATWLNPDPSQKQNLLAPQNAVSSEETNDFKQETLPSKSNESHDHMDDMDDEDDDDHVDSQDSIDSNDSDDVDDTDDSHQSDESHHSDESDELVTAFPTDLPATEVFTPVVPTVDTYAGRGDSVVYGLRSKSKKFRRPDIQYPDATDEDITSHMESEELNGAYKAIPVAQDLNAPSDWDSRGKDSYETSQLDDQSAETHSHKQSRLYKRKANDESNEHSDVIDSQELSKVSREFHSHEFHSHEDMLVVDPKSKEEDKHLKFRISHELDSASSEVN

Regarding “Osteopontin (Homo sapiens), P10451-1 D135A;D157A”, the “effect of a mutation on the interaction” value was “disrupting interaction”.
